Experimental data reported in PMC12714728 (npj Viruses, 2025).
Positions of bridges follow the written chain, without caps; N, C: chain ends. No end group written: not given here.

B1: cyclic peptide CP11 (peptide)
peptide: CYRDPLGVAGGMC
modifications: disulfide 1-13
notes: source: synthetic peptide (manual solid phase Fmoc chemistry, iodine oxidation, RP-HPLC)
B2: cyclic peptide CP13 (peptide)
peptide: CYRDPLGVAGEMC
modifications: not fully specified; cysteine pairing not given here
B3: cyclic peptide CP8 (peptide)
peptide: CLYRDPLGVAGGMGC
modifications: not fully specified (bridges); cysteine pairing not given here
notes: as for B1
B4: cyclic peptide CP14 (peptide)
peptide: LYEDPLGVAGGMG
modifications: head-to-tail lactam cyclized (no template)
notes: source: synthetic peptide (manual solid phase Fmoc chemistry, RP-HPLC)

These binders were tested against H1/Bri HA, A/Brisbane/59/07 (H1N1) hemagglutinin, C-terminally biotinylated, for the CCI assay (influenza A virus A/Brisbane/59/07 …, C-terminal biotin) (assay: cell-based or functional assay).
In the case of B1, the “conformational change inhibition assay (CCI) IC50” value is reported as 8.52 µM. With B2 the “conformational change inhibition assay (CCI) IC50” value was 39.4 µM. For B3, the “conformational change inhibition assay (CCI) IC50” value was 0.54 µM. With B4 the “conformational change inhibition assay (CCI) IC50” value was 1.24 µM.
